Kd data for one substance are collected here from PMC3201873.

For the experiment, the target named is B′ protein (GyrB C-terminal domain) of M. tuberculosis DNA gyrase (M. tuberculosis). In words: […]) in 50 mM Tris–HCl.

For the substance “B′ protein (GyrB C-terminal domain) of M. tuberculosis DNA gyrase (domain or fragment)”, the Kd was below 1000 nM.
